Data as given in patent CN114989300A (BIO THERA SOLUTIONS LTD, dated 2022).

Target: T1, 人TIGIT (TIGIT-Jurkat细胞表面) (human, UniProt Q495A1 22-244)
T1 construct: whole, on cells
T1 sequence (looked up): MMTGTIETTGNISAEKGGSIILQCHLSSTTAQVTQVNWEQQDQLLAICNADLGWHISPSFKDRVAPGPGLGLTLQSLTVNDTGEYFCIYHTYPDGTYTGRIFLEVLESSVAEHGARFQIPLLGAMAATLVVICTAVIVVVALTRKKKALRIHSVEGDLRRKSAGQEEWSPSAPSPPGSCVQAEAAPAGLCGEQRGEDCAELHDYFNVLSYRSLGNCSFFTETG
Assay: flow cytometry; blocking of 12.5 nM biotinylated PVR-Fc binding to TIGIT-Jurkat cells

B1: 抗体h10D8OF (antibody, human IgG1, kappa, V domains shown)
VH: QVQLVESGGGVVQPGRSLRLDCKASGFTFSSYGMSWVRQAPGKGLELVATINSNGGSTYYPDSVKGRFTISRDNSKNTLFLQMNSLRAEDTAVYYCARLGTGTLGFAYWGQGTLVTVSS
VL: EIVMTQSPATLSLSPGERATLSCKASQDVKTAVSWYQQKPGQAPRLLIYWASTRATGIPARFSGSGSGTDYTLTISSLEPEDFAVYYCQQHYSTPWTFGQGTKVEIKR
notes: also called 抗TIGIT抗体
IC50: 0.441 nM

B2: 抗体h10D8OFKF (antibody, human IgG1, kappa, V domains shown)
VH: B1 VH
VL: B1 VL
modifications: fucosylation level about 0 (expressed in alpha-(1,6)-fucosyltransferase knockout CHO cells)
notes: also called 抗TIGIT抗体
IC50: 0.742 nM

B3: 参照抗体Tiragolumab (antibody, V domains shown)
VH: EVQLQQSGPGLVKPSQTLSLTCAISGDSVSSNSAAWNWIRQSPSRGLEWLGKTYYRFKWYSDYAVSVKGRITINPDTSKNQFSLQLNSVTPEDTAVFYCTRESTTYDLLAGPFDYWGQGTLVTVSS
VL: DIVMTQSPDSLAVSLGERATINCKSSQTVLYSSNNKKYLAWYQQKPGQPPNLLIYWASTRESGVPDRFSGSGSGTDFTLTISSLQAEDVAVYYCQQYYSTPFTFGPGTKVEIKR
IC50: 2.82 nM
